Tested on: IFN-γ^+ ILC1s
Test: In vitro stimulation: IFN-γ production by ILC1s
Assay type: cell-based, mouse
Settings: neutralizing antibody 10 μg/ml with LSCs, or IL-7 100 ng/ml; 12 h, IL-12 plus IL-15
Excerpt: ILC1s from human peripheral blood were identified by a surface stain including a live/dead cell viability cell staining kit (Invitrogen) and the following monoclonal antibodies: lineage (FITC-conjugated anti-CD3, anti-CD4, anti-CD8, anti-CD14, anti-CD15, anti-CD16, anti-CD19, anti-CD20, anti-CD33, anti-CD34, anti-CD203c, anti-FceRI), CD56 (FITC, AF700 or BV421 conjugated anti-CD56), CD127 (APC-conjugated anti-CD127), CRTH2 (PE-Cy7-conjugated anti-CRTH2), and c-Kit (PE-conjugated anti-c-Kit). ILC from mice were identified by a surface stain and the following monoclonal antibodies: lineage (PE-Cy7-conjugated anti-CD3 and anti-CD19), NK1.1 (BV510-conjugated anti-NK1.1), NKp46 (BV421, FITC or AF647-conjugated anti-NKp46), CD49b (BUV395 or PE-conjugated anti-CD49b), and CD49a (BV711-conjugated anti-CD49a). Human LSCs were identified by lineage (FITC-conjugate anti-CD2, anti-CD3, anti-CD4, anti-CD8, anti-CD14, anti-CD19, anti-CD20, anti-Mac-1, anti-CD56, and anti-CD235a), CD45 (BV510-conjugated anti-CD45), CD34 (BV510-conjugate anti-CD34), and CD38 (BV605 conjugated anti-CD38). Mouse LSCs were identified by lineage (PE-Cy7 conjugated anti-CD3, anti-CD19, anti-B220, anti-Ly6G/C, anti-Mac-1, anti-CD11b, and anti-Ter119), Sca-1 (PE-CF594 or BV510-conjugate anti-Sca-1), and c-Kit (BV711-conjugated anti-c-Kit). […]

B1: IL-7: recombinant mouse IL-7 (100 ng/ml) (protein)
chain: ECHIKDKEGKAYESVLMISIDELDKMTGTDSNCPNNEPNFFRKHVCDDTKEAAFLNRAARKLKQFLKMNISEEFNVHLLTVSQGTQTLVNCTSKEEKNVKEQKKNDACFLKRLLREIKTCWNKILKGSI
  effect on production of IFN-γ in normal ILC1s: significantly increased
